Results on 3 molecules are retold here after paper PMC8864007, “Evaluation of an ^131I-labeled HER2-specific single domain antibody fragment for the radiopharmaceutical therapy of HER2-expressing cancers” (Scientific Reports, 2022).

Test [1] has as its target T1, HER2-Fc protein (Homo sapiens, UniProt P04626).
T1 construct: human epidermal growth factor receptor type 2 (HER2), fused to Fc; Probably the extracellular domain of HER2; The source may stand in Supplementary Methods
In words: SPR; Biacore 3000 System; binding to HER2-Fc protein; which partner was immobilised is not stated. Particulars: both partners purified.

Test [2] deals with T2, murine HER2 (Mus musculus, UniProt P70424).
T2 construct: murine HER2
The test can be described thus: ELISA; affinity, specificity and species cross-reactivity by ELISA; details in Supplementary Materials. (In general: An ELISA detects its analyte on a solid surface through an enzyme-linked reagent.)

For test [3], the target named is T3, human epidermal growth factor receptor type 2 (HER2) on HER2-expressing carcinoma cells (Homo sapiens, endogenous on SKOV-3 cells, UniProt P04626).
T3 construct: human epidermal growth factor receptor type 2 (HER2), endogenous on SKOV-3 and BT474 cells; The assay tells which cell line was used; also called HER2 receptor; source: endogenous, on SKOV-3 human ovarian carcinoma cells and on BT474 human breast carcinoma cells
In words: radioligand binding; cell-based affinity assay on HER2-expressing SKOV-3 cells; nonspecific binding measured with a 100-fold molar excess of trastuzumab; three therapy-level batches. The note with it: one partner purified.

Several values for one entry are separate records, joined by “and”; a condition that tells them apart may be missing. Equal values may be shown once.

T2 sequence (P70424 23-1256): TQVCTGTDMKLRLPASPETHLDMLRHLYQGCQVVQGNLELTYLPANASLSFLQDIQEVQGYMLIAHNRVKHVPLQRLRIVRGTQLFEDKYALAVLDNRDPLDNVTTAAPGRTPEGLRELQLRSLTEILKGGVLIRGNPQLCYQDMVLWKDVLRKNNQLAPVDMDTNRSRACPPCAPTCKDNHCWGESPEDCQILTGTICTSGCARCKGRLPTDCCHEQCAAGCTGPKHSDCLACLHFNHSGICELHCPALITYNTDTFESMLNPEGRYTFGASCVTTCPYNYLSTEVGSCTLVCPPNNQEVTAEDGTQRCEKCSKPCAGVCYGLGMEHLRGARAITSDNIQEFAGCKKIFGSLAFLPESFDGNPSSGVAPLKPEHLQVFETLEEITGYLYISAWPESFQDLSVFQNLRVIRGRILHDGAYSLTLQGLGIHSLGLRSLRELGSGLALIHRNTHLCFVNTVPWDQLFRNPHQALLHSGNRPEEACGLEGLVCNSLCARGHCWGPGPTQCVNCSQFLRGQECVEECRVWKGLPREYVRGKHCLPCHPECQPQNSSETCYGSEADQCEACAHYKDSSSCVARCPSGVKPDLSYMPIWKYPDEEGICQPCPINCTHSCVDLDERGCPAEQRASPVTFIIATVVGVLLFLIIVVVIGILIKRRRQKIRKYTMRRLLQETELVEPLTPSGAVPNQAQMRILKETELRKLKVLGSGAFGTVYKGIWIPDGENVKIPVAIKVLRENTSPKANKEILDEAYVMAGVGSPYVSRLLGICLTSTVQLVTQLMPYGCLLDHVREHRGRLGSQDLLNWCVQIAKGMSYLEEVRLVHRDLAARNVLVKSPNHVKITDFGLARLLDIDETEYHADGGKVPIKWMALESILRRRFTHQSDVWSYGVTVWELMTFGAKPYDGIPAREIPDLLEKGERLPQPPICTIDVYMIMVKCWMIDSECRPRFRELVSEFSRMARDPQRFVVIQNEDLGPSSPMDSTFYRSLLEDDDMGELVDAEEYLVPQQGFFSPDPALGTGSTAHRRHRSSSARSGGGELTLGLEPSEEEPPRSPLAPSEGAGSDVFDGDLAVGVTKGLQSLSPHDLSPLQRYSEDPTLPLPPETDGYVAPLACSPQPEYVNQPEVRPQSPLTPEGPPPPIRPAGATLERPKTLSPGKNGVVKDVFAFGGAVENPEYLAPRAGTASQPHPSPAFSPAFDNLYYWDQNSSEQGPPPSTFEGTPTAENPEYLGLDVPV

B1: VHH_1028 (VHH)
VHH: EVQLVESGGGLVQAGGSLRLSCAASGITFSINTMGWYRQAPGKQRELVALISSIGDTYYADSVRGRFTISRDNAKNTVYLQMNSLKPEDTAVYYCKRFRTAAQGTDYWGQGTQVTVSS
notes: Measured mass 12,844.0 Da (theoretical 12,844.2 Da); Engineered to have no lysine in its CDR regions; also called anti-HER2 VHH_1028; sdAb VHH_1028; source: developed and provided by Cereius, Inc; production and purification in Supplementary Materials
Turning to B1, in test [1], the dissociation constant (Kd) was 0.21 nM. Besides, the binding result in test [2] is “no binding”.

B2: iso-[^131I]SGMIB-VHH_1028 (VHH)
VHH: B1 VHH
notes: as the chain of m1; source: VHH_1028 conjugated with iso-[^131I]SGMIB, isolated by gel filtration (PD-10)
Regarding B2, in test [3], the dissociation constant (Kd) is 1.5 nM and 2.9 nM and 2.6 nM.

B3: iso-SGMIB-VHH_1028 (VHH)
VHH: B1 VHH
notes: as the chain of m1; Measured mass 13,147.6 Da (calculated 13,146.4 Da); also called unlabeled iso-SGMIB-VHH_1028; 1:1 iso-SGMIB-VHH_1028 conjugate; source: VHH_1028 reacted with iso-SGMIB, 1:1 conjugate isolated by HIC-HPLC
B3: binding in test [1] was put at a Kd of 0.21 nM.

A word on the Kd: it is a measure of binding affinity in units of concentration.
